According to patent US20180303913A1:
“And” between values parts separate entries of the source, which are not always exact repeats. Equal values may be shown once.

T1: Flag-HA-ID2 (human) (UniProt Q02363)
T1 sequence: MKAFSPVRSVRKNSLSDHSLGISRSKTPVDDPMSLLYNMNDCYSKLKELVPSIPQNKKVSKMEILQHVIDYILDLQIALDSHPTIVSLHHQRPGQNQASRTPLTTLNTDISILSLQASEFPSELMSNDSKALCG


Target: T1, Flag-HA-ID2 (human)
Assay: tandem Flag/HA affinity purification of Flag-HA-ID2 complexes from NCI-H1299 cells, LC-MS/MS; CRAPome specificity score

Molecule	Calculated score [(#peptide*#xcorr)/(AveSC*MaxSC*Found# of Expt.)]
Heat shock 70 kDa protein 1A/1B (from UniProt P0DMV8)	4.5e-05
GR75_HUMAN Stress-70 protein (from UniProt P38646)	1.1e-05
Heat shock cognate 71 kDa protein (NP_694881) (from UniProt P11142-2)	1.88e-05
RING finger protein 113A (from UniProt O15541)	0.212
Tubulin beta chain	7.15e-06
78 kDa glucose-regulated protein (from UniProt P11021)	0.000131 and 5.32e-05
Tubulin alpha-1B chain	1.25e-05
heat shock 70 kDa protein 1-like (from UniProt P34931)	7.39e-06
Elongation factor 1-alpha 2 (from UniProt Q05639)	1.18e-05
Elongator complex protein 4 (protein) MAAVATCGSVAASTGSAVATASKSNVTSFQRRGPRASVTNDSGPRLVSIAGTRPSVRNGQLLVSTGLPALDQLLGGGLAVGTVLLIEEDKYNIYSPLLFKYFLAEGIVNGHTLLVASAKEDPANILQELPAPLLDDKCKKEFDEDVYNHKTPESNIKMKIAWRYQLLPKMEIGPVSSSRFGHYYDASKRMPQELIEASNWHGFFLPEKISSTLKVEPCSLTPGYTKLLQFIQNIIYEEGFDGSNPQKKQRNILRIGIQNLGSPLWGDDICCAENGGNSHSLTKFLYVLRGLLRTSLSACIITMPTHLIQNKAIIARVTTLSDVVVGLESFIGSERETNPLYKDYHGLIHIRQIPRLNNLICDESDVKDLAFKLKRKLFTIERLHLPPDLSDTVSRSSKMDLAESAKRLGPGCGMMAGGKKHLDF	0.0043

Results, then the molecule that gave them:

Calculated score [(#peptide*#xcorr)/(AveSC*MaxSC*Found# of Expt.)]	Molecule
6.8e-07	Protein arginine N-methyltransferase 5 (from UniProt O14744) (enzyme)
23.8	Transcription factor E2-alpha (from UniProt P15923)
3.81e-06	heat shock cognate 71 kDa protein isoform 1 (from UniProt P11142)
1.79e-05	tubulin beta-4B chain
7.71	transcription factor 12 isoform b (from UniProt Q99081)
